One test deals with pro-IGF2^1-104 (UniProt P01344 25-128). As to the kind of experiment: SPR kinetic, Fc fusion captured by anti-human IgG, pH 7.4. The procedure:
(§1) SPR analysis of the interaction of recombinant IGF1 and IGF2 forms with Fc-domain 11 proteins immobilised by antibody capture (CM5 chip containing monoclonal mouse anti-human IgG antibody immobilised by amine coupling). Measurements were carried out at 25° C. in HBS-EP buffer (pH 7.4).
(§2) Final kinetic analysis of mutants by SPR was conducted using a Biacore T200 biosensor at 25° C. in either HBS-EP (10 mM HEPES pH 7.4, 150 mM NaCl, 3 mM EDTA, and 0.005% (v/v) surfactant P20) or MES-EP (20 mM MES pH 6.5, 150 mM NaCl, 3 mM EDTA, and 0.005% (v/v) surfactant P20) at a flow-rate of 40 μL min⁻¹. […] For the analysis of the Fc-domain 11^AB5 interaction, approximately 50 RU of a biotinylated IGF2:biotinylated ubiquitin mixture (1:8 proportion) was immobilized on the CM5-streptavidin chip. This interaction was also analysed by immobilizing the Fc-domain 11^AB5 and Fc-domain 11^AB5-RHH (or Fc-domain 11^I1572A as control) by Human Antibody Capture (monoclonal mouse anti-human IgG antibody immobilised on a CM5 chip by amine coupling, GE Healthcare) with and without human IgG1 Fc fragment (Bethyl Laboratories, UK) in the control flow cell. […] T200 BiaEvaluation software (GE Healthcare) was used to fit the resulting curves according to a 1:1 binding model. Steady state affinities were determined using the kinetic data, taking the response average at 5 seconds before injection end and for 5 seconds average. Thermodynamic data was performed across the temperature range of 10° C. to 30° C., van't Hoff and Erying plots generated and ΔH, −TΔS and ΔG values determined as previously described.

The target of test [1] is T1, human IGF2^1-67 (mature insulin-like growth factor 2) (human, UniProt P01344 25-91, biotinylated (site not stated) where immobilised on the chip (Tables 1-4)).
T1 construct: mature; also called mature IGF2; biotinylated IGF2
The test is described as above. The procedure:
as §1, §2

A further test concerns the target T2, pro-IGF2^1-156 (UniProt P01344 25-180).
T2 construct: range 1-156
The test is described as above. The procedure: as §1, §2

Test [2] addresses T1, human IGF2^1-67 (mature insulin-like …). As to the kind of experiment: cell-based or functional assay.
For test [3] the target is unchanged. The test is described as follows: SPR (Biacore T200, 25 °C, HBS-EP pH 7.4); ΔΔG° = RT ln(KD mutant / KD domain 11^AB3); box AB+FG. The procedure: Boxes show the change in the binding free energy contribution, ΔΔGº, for the indicated mutants. The loop/s that contains the mutation/s is indicated in each box. The ΔΔGº values were calculated as ΔΔGº=ΔGº domain 11^mutant−ΔGº domain 11^AB3=RTln(KD domain 11^mutant/KD domain 11^AB3). Additive and non-additive contributions of single point mutations are shown when calculated with a box solid line and dashed line, respectively.
as §2, with “average.” for “average. Thermodynamic data was performed across the temperature range of 10° C. to 30° C., van't Hoff and Erying plots generated and ΔH, −TΔS and ΔG values determined as previously described.”
For orientation: SPR reads the build-up and loss of mass on a sensor chip optically.

Test [4] has the same target. The test is described as follows: SPR.
Text: Surface plasmon resonance (SPR) binding analysis of recombinant M6P/IGF2R domain 11 mutants interaction with IGF2. Kon indicates association (on) rate; koff, dissociation (off) rate; RU, response units. Binding to IGF2 assessed with BIAcore T200 using purified biotinylated IGF2 and IGF1 on a streptavidin biosensor chip. Recombinant proteins were expressed either in E. coli and/or P. pastoris. All the mutants in the FG and CD loops are on the domain 11^AB5 background for the AB loop unless otherwise stated. All experiments were carried out at 25° C. in HBS-EP buffer (pH 7.4), were repeated 2-5 times on two independent BIAcore chips. nd=not determined. Data for KD expressed as mean of each experiment, and means of kon and koff are shown.
as §2, with “model.” for “model. Steady state affinities were determined using the kinetic data, taking the response average at 5 seconds before injection end and for 5 seconds average. Thermodynamic data was performed across the temperature range of 10° C. to 30° C., van't Hoff and Erying plots generated and ΔH, −TΔS and ΔG values determined as previously described.”

Test [5] shares this target. As to the kind of experiment: SPR kinetic, biotin-IGF2 on chip, pH 7.4. The gist of the method: (§3)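 Biacore SPR at 25 °C in HBS-EP pH 7.4 or MES-EP pH 6.5, flow 40 μL/min; ~50 RU biotin-IGF2:biotin-ubiquitin (1:8) on streptavidin chip, or Fc-domain 11 captured via anti-human IgG. Kinetics fitted to 1:1 model; steady-state affinity from response averaged 5 s before injection end.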

The target is the same in test [6]. The test is described as follows: SPR steady state, biotin-IGF2 on chip, pH 7.4. In outline: as §3
The target is the same in test [7]. The test is described as follows: SPR steady state, biotin-IGF2 on chip. As for the experimental part: as §2
The target is the same in test [8]. The test is described as follows: SPR kinetic, biotin-IGF2 on chip. The procedure:
as §2

Test [9] shares this target. As to the kind of experiment: SPR, biotin-IGF2 on chip, pH 7.4.
Test [10] has the same target. The test is described as follows: SPR steady state, biotin-IGF2 on chip, pH 7.4. In outline: (§4)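 Biotinylated IGF2 captured on streptavidin chip; recombinant M6P/IGF2R domain 11 mutants (E. coli or P. pastoris) injected at 25° C in HBS-EP, pH 7.4, 40 μL min⁻¹. Kinetics fitted to 1:1 model; steady-state KD from 5 s response averages before injection end; 2-5 repeats on two chips.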
The source holds these as a separate data set.

For test [11] the target is unchanged. As to the kind of experiment: SPR kinetic, biotin-IGF2 on chip, pH 7.4. In outline:
as §4
The source holds these as a separate data set.

Substitutions are numbered along the chain they refer to. Names and notes keep the numbering of the source. Where only a bound is given, the exact number is not on record here.

T2 sequence (P01344 25-180 limits assumed): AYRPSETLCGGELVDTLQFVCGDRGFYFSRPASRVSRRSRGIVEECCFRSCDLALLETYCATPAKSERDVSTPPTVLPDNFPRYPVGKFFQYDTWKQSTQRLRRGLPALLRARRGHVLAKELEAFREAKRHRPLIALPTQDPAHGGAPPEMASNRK
Sequence of pro-IGF2^1-104 (P01344 25-128 limits assumed): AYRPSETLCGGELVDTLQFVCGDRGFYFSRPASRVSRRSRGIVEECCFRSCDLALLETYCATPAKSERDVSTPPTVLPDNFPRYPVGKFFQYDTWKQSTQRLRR
T1 sequence (P01344 25-91): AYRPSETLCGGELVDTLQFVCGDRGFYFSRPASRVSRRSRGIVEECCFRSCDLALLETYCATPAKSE

B1: human IgG1 Fc-domain 11^AB5 fusion protein (Fc fusion)
chain: NEHDDCQVTNPSTGHLFDLSSLSGRAGFTAAYAKGWGVYMSICGENENCPPGVGACFGQTRISVGKANKRLRYVDQVLQLVYKDGSPCPSKSGLSYKSVISFVCRPEAGPTNRPMLISLDKQTCTLFFSWHTPLACEQAT
notes: Made in HEK293T; also called Fc-domain II^AB5; pHLSec-AB5-hIgG1; not shown: human IgG1 Fc
The Kd is a measure of binding affinity in units of concentration. Higher therefore signals lower affinity. What is called koff is a measure of how fast the partners let go of each other. A low value points to slow dissociation. The term kon denotes the second-order rate constant of association. Read a low kon as slow association. With B1, in the test with pro-IGF2^1-104, the Kd came to 0.54 nM, the off-rate (koff) came out at 0.0069 s⁻¹ and the kon was 1.29e+07 M⁻¹ s⁻¹. In test [1], this molecule came in with a Kd of 3.89 nM, a koff of 0.025 s⁻¹ and a kon of 6.47e+06 M⁻¹ s⁻¹. For the same molecule, in the test with pro-IGF2^1-156, the affinity, expressed as Kd, was 0.21 nM; the koff came to 0.0009 s⁻¹; the kon stood at 4.19e+06 M⁻¹ s⁻¹. In addition, in [2], the “IC50, cell viability of HT29/219 in serum free conditions” value stood at 1700 nM; the “IC50, cell viability of Hep3B in serum free conditions” value was 35500 nM; the “IC50, cell viability of Huh7 in serum free conditions” value turned out to be 1200 nM.

B2: domain 11^AB3 P1597H (receptor)
chain: MKSNEHDDCQVTNPSTGHLFDLSSLSGRAGFTAAYSKSGVVYMSICGENENCPPGVGACFGQTRISVGKANKRLRYVDQVLQLVYKDGSHCPSKSGLSYKSVISFVCRPEAGPTNRPMLISLDKQTCTLFFSWHTPLACEQATECSV
notes: See m5; also called AB3 + 62B (FG-P1597H)
Consider B2, for which the ΔΔG in [3] is -1.49 kcal/mol. For the same molecule, in [4], the “fold change of KD against domain 11^AB3” value came to 10 fold and the “fold reduction of koff against domain 11^AB3” value amounted to 4 fold. For the same molecule, in test [5], the affinity, expressed as Kd, was 1.23 nM; the koff was 0.013 s⁻¹; the kon is 1.06e+07 M⁻¹ s⁻¹. Further, in test [6], the dissociation constant Kd was determined as 1.76 nM. In [7], this molecule had a Kd of 1.76 nM. In addition, in test [8], the Kd was 1.23 nM, the koff came out at 0.013 s⁻¹ and the kon was 1.06e+07 M⁻¹ s⁻¹.

B3: domain 11^AB5 Q1569R P1597H S1602H G1603K (receptor)
chain: B2 chain with S36A, S38G, G39W, V40G, Q62R, S95H, G96K
notes: See m5; Only koff printed; other cells np (no protein)
Consider B3, for which the koff in [9] was 0.005 s⁻¹.

B4: domain 11^AB5 HI^23D (receptor)
chain: B2 chain with S36A, S38G, G39W, V40G, H90P, D123H, K124F, T126S
notes: as for B3
B4 had a koff in test [9] of 0.012 s⁻¹.

B5: domain 11^AB5 Q1569R P1597K S1602H G1603K (receptor)
chain: B2 chain with S36A, S38G, G39W, V40G, Q62R, H90K, S95H, G96K
notes: as for B3
In test [9], B5 showed a koff of 0.008 s⁻¹.

B6: domain 11^AB5 S1602H (receptor)
chain: B2 chain with S36A, S38G, G39W, V40G, H90P, S95H
notes: See m5
For the molecule B6, the ΔΔG in [3] was -0.93 kcal/mol. In addition, the “fold improvement of affinity” value in [4] was ≤ 2 fold. The same molecule registered a Kd in test [10] of 5.44 nM. In test [11], this molecule registered a Kd of 3.19 nM, a koff of 0.0112 s⁻¹ and a kon of 3.61e+06 M⁻¹ s⁻¹.

B7: domain 11^AB5 G1603K (receptor)
chain: B2 chain with S36A, S38G, G39W, V40G, H90P, G96K
notes: See m5
As to B7, the ΔΔG in test [3] was -1.02 kcal/mol. Besides, in [4], the “fold improvement of affinity” value was ≤ 2 fold. The molecule also registered a Kd in test [10] of 4.54 nM. In test [11], this molecule had a Kd of 2.73 nM, a koff of 0.0121 s⁻¹ and a kon of 4.66e+06 M⁻¹ s⁻¹.

B8: domain 11^AB3 P1597H HI^23D (receptor)
chain: B2 chain with D123H, K124F, T126S
notes: See m5; Only koff printed
As for B8, the koff in [9] was found to be 0.012 s⁻¹.

B9: domain 11^AB5 P1597H (receptor)
chain: B2 chain with S36A, S38G, G39W, V40G
notes: See m5
On to B9, for which the ΔΔG in [3] was -1.23 kcal/mol. In test [5], this molecule showed a Kd of 1.9 nM, a koff of 0.007 s⁻¹ and a kon of 3.68e+06 M⁻¹ s⁻¹. The molecule also showed a Kd in test [6] of 2.79 nM.
